From the nanobody polyreactivity screen of Harvey et al. (2022)

Experiment: yeast display, Sf9 membrane polyspecificity reagent, FACS + sequencing; frameworks hold sequencing errors
Outline: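 Sorting gates, low and high (top ~1%), were placed on anti-HA fluorescence to track expression and on streptavidin fluorescence to track reagent binding. A clone's polyreactivity label is taken from the gate it came out of. The reagent was 10% biotinylated, detergent-solubilized Sf9 membrane, applied for 1 hour at 4 °C to galactose-induced yeast display cells.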

QVQLVESGGGLVQAGGSLRVSCAASGFTFTRYTMGWYRQAPGKEWELVAAITRSGGNTYYADSVKGRFTISRDNAKNTVYLQMNSLKPEDTAVYYCAARQVSGIGPYDYWGQGTQVTVSS
polyreactivity (PSR sort gate): high polyreactivity

QVQLVESGGGLVQAGGSLRVSCAASGNIFVYNAMGWYRQAPGKERELVAAIDSGGSTYYADSVKGRFTISRDNAKNTVYLQMNSLKPEDTAVYYCAADYYSTYRTIYYYWGQGTQVTVSS
polyreactivity (PSR sort gate): low polyreactivity

QVQLVESGGGLVQAGGSLRVSCAASGRIFRYTSGWYRQAPAKERELVATINSCGRTYYADSVKGRFTISRDNAKNTVYLQRNCLKPEDTAVYFCAAPYQTKCNKYVHGSPIENDYWGQGTQVTVSS
polyreactivity (PSR sort gate): low polyreactivity

QVQLVESGGGLVQAGGSLRVSCAASGRTFSGYTMGWYRQAPGKERELVATIRDRGGSTYYADSVKGRFTISRDNAKNTVYLQMNSLTPEDTAVYYCAARRGRRYYYWGQATQVTVSS
polyreactivity (PSR sort gate): high polyreactivity

QVQLVESGGGLVQAGGSLRVSCAASGRTFYANVRGWYRQAPGKERELGAAIAASGGSTYYADSVKGRVTISRDNAKNTVYLQMNRLKPEDTAGYYCYKVVRWPGTYLRYVISDLDYWGQGSQVTVSS
polyreactivity (PSR sort gate): low polyreactivity

QVQLVESGGGLVQAGGSLRVSCAASGRTFYRKAMGWYRHAPGKERSLVAAISSGGSTTYADSVKGRFTISRDNAKNTVYLQMISLKPEDTAVYYCAARSHAGSVCPRLKEYDFWGQGTQVTVSS
polyreactivity (PSR sort gate): low polyreactivity

QVQLVESGGGLVQAGGSLRVSCAASGSIFDVYTMGWYRQAPGKERELVAAISKRSGRTYYADSVKGRFTISRDNAKNTVYLQMNSLKPEDTAVYYCAKDFGYWGQGTQVTVSS
polyreactivity (PSR sort gate): low polyreactivity

QVQLVESGGGLVQAGGSLRVSCAASGSIFPDNAMGWYRQAPGKERELVAAITRGGSTYYADSVKGRFTISRDNAKNTVYLQMNSLKPEDTAVYYCAARRRYLWSYDYWGQGTQVTVSS
polyreactivity (PSR sort gate): high polyreactivity

QVQLVESGGGLVQAGGSLRVSCAASGSIFYQYAMGWYRQAPGKERELVAAISTTGGRTYYADSVKGRFTISRDNAKNTVYLQMNSLKPEDTAVYYCAAYKYYGYDYWGQGTQVTVSS
polyreactivity (PSR sort gate): high polyreactivity

QVQLVESGGGLVQAGGSLRVSCAASGSTFASYAMGWSRQAAGKVWEFVAAICRSGGSTYYADSVKGRFTISRDNAKNTVSFQMNSREPEDPAVYYWAKSRYDYTIPEGGYWGQGTQATVSS
polyreactivity (PSR sort gate): low polyreactivity

QVQLVESGGGLVQAGGSLRVSCAASGYFFHYHAMGWYRHAPGKEREFVAAISQGGGSTYYADSVKGRFTISRDNAKKTVSLQMISLKPEDTAVYYCAADYRSGYREMDYWGQGTQVTVSS
polyreactivity (PSR sort gate): low polyreactivity

QVQLVESGGGLVQAGGSLRVSCAPSGRTFSWYAMGWYRQAPGKEREFVAAIRWSGSSTYYADSVKGRFTISRDNAKNTVYLHMNSLKPEDTAVYYCAVAAGIPQRRYYYWGHGTQVTVSS
polyreactivity (PSR sort gate): high polyreactivity

QVQLVESGGGLVQAGGSLRVSCDASGFTFFYNAMGRYRQAHGKERELVASISSVGRTNYADSVKGRFRISRDNAKNTVYLQMNSLTPEDTAVYFCAAYRAPATRRRGYYYWGLGTQVTVSS
polyreactivity (PSR sort gate): high polyreactivity

QVQLVESGGGLVQAGGSLRVSWAACGSTFYGYGMGWYRQAPWKERELVAAITGSGDTTYYADSVKGRFTISRDNAKNTVYLQMNSLKPEDTAVYYCAADASSKLYEYWGQGTQVTVSS
polyreactivity (PSR sort gate): low polyreactivity

QVQLVESGGGLVQAGGSLSLICAASGRILSGNAMVWYRQAPGKERELVAAITNAGITKYAVSVKGRFTISRDNAKNTVYLQMNSLKPEHTEVYYCASDRYAYKLYDYWGQGTQVTVSS
polyreactivity (PSR sort gate): low polyreactivity

QVQLVESGGGLVQAGGSLSLICAASGRIYPKYAMGWYRQAPGKERELVAGITKRVGSTYYADSVKGRFTISRDNAKHTVYLQMTSLKPEDTAGYYCAKRWVSGPHGYWGQGTQVTVSS
polyreactivity (PSR sort gate): low polyreactivity

QVQLVESGGGLVQAGGSLSLICAASGSTLATYTMGGYRQAPGKERELVAAISFGGSTYYADSVKGRYTISRDNAKNTVYLQMISLKPEDTAVYYCAVYGDSYWGAYYYSDGYWGQGTQVTVSS
polyreactivity (PSR sort gate): low polyreactivity

QVQLVESGGGLVQAGGSLSLRFAASGFIFYRYAMGWYRQAPWKERELVAAITRSVTSTYYADSVKGRFTISRDNAKNTVYLQMNSLKPEDTAVYYCILRSRYDYYYWGQGTQVTVSS
polyreactivity (PSR sort gate): high polyreactivity

QVQLVESGGGLVQAGGSLSLSCAAMGWYRQAPGKERELVATITWSGGSTYYADSVKGRFTISRDNAKNPVYLQMNSLKPEDTAVYYCNARATLLSPANTIRGYDYWGQGTQVTVSS
polyreactivity (PSR sort gate): low polyreactivity

QVQLVESGGGLVQAGGSLSLSCAASGFIFHFNAMGWYIQAPGKEREVVAAISRTGGTTYYADSVKGRFTLSRDNAKNTVYLQMNSLKPEVTAVYYCAAYSTYGQHYDYWGQGTQVTVSS
polyreactivity (PSR sort gate): high polyreactivity

QVQLVESGGGLVQAGGSLSLSCAASGFIFPRYTMGWYRQAPGKERELVAAMTSSGGTNYADSVKGRFTISRDNAKNTVYLQMNSLKPEDTAVYYCAARRRTQQGYGGGYWGQGTQVTVSS
polyreactivity (PSR sort gate): high polyreactivity

QVQLVESGGGLVQAGGSLSLSCAASGFIFVPYAMGLSRQAPGKERELVARITWSGGRTYYADSVKGRFTISRDNAKNTVYLQLNSLKPEDTAVYYCNADVYGFDYWGQGTQVTVSS
polyreactivity (PSR sort gate): high polyreactivity
